Laboratory results taken from patent publication US20200340992, “DNA APTAMER […] BINDING TO ESAT6, AND USE […]” (MD APTUS INC., published 2020).

Legend:
[1] = target: ESAT6 (early secretory antigenic target 6 kDa) (Mycobacterium tuberculosis H37Rv, UniProt P9WNK7 P9WNK7:1-95); test: fluorescence of Cy3-aptamer bound to ESAT6 on magnetic beads; 20 mM Tris, 50 mM NaCl, 5 mM KCl, 5 mM MgCl2, pH 8.0; conditions: label: Cy3
Description: 400 pmole of ESAT6 was mixed with 10 μL of magnetic beads, and then incubated in 100 μL of a binding buffer (20 mM Tris, 50 mM NaCl, 5 mM KCl, 5 mM MgCl₂, pH 8.0) for 1 hour. To separate unbound ESAT6, washing was performed twice with a binding buffer. Subsequently, the resulting mixture was incubated together with various concentrations of a Cy3-labeled aptamer, and an unbound aptamer was removed by washing. The amount of Cy3-labeled ssDNA aptamer bound to the magnetic beads with ESAT6 immobilized thereon was measured by fluorescence measurement (1420 Victor Multilabel counter, PerkinElmer, USA) by separating only Cy3-labeled ssDNA bound to ESAT6. As a result, as shown in FIG. 3 and Table 2 below, the Kd value of the DNA aptamer having a EG11(44) base sequence was measured.

[2] = target: T1, TB7.7 (UniProt P9WJ11 P9WJ11:1-81); test: electrochemical impedance specificity test; 10 pM protein in PBS
T1 sequence: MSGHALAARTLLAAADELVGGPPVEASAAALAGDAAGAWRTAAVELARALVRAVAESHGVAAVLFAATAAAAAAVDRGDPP
Text: (§1) At this time, each protein was mixed at a concentration of 10 pM with PBS and used for detection.

[3] = target: CFP-10 (UniProt P9WNK5 P9WNK5:1-100); test: as above
Chain of CFP-10 (P9WNK5 whole entry, one chain of several): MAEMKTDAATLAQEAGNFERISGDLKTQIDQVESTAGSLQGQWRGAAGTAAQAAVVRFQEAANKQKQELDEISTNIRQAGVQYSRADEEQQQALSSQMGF
Text: as §1

Chain of ESAT6 (early secretory antigenic target 6 kDa) (P9WNK7 whole entry, one chain of several): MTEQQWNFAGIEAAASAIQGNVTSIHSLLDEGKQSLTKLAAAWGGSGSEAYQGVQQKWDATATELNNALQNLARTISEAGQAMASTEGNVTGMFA

## CGAGGTAGCTTACCCGCTTATGTTCACTGTGGGTTGCTGGCTCG (ssDNA) [EG11(44)]
[1]
  Kd: 0.0314 µM

## CGAGGTAGCTTACCCGCTTATGTTCACTGTGGGTTGCTGGCTCG (ssDNA) [EG11(44) unlabelled]
[2]
  binding result: no binding
[3]
  binding result: no binding
